Results published in the nanobody polyreactivity screen of Harvey et al. (2022).

Assay: yeast display, Sf9 membrane polyspecificity reagent, FACS + sequencing; frameworks hold sequencing errors
Summary of the method: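 After 36–48 hours of galactose induction, yeast (Saccharomyces cerevisiae BJ5465) displaying a synthetic nanobody library were stained at 4 °C for 1 hour with 10% biotinylated, detergent-solubilized Sf9 membrane reagent. Streptavidin microbeads enriched the stained cells before FACS sorting into low and high (top ~1%) gates on anti-HA and streptavidin fluorescence. Each clone's polyreactivity label reflects its gate of origin.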

| Sequence | polyreactivity (PSR sort gate) |
| --- | --- |
| QVQLVESGGGLVQAGGSLRLSCAASGRIYYTYAMGWYRQAPGKERELVAAIRRGGSTNYADSVKGRFTISRDNAKNTVYLQMNSLKPEDTAVYYCAADVYRASFWYGYWGQGTQVTVSS | low polyreactivity |
| QVQLVESGGGLVQAGGSLRLSCAASGRLFSYNAMGWYSQAPGKERELVAGITYGSTYYADSVKGRFRISRDNAKNTVYLQMNSLKPEDTAVYYSAADQSYTSVHGYRSDTLMDYWGQGTQGTVSS | low polyreactivity |
| QVQLVESGGGLVQAGGSLRLSCAASGRLFTIYAMGGYTQAPGKERELVATISRRGGSTYYADSVKGRFTISRDNAKNTVYLQMNSLKPEDTAVYYCAKRQRSKAAVAGYVDATGEMDYWGQGTQVTVSS | high polyreactivity |
| QVQLVESGGGLVQAGGSLRLSCAASGRLFTYYVMGWYRQAPGKERELVAAISYGGGSTYYADSVKGRFTISRDNAKNTVYLQMNSLKPEDTAVYYCAAEDGYRKMDYWGQGTQVTVSS | low polyreactivity |
| QVQLVESGGGLVQAGGSLRLSCAASGRLFVYNAMGWYRQAPGKERELVAAISWRGGSTYYADSVKGRFTISRDNAKNTVYLQMYSLKPEDTAVYDCAAQRTARQFDYWGQGTQVTVSS | high polyreactivity |
| QVQLVESGGGLVQAGGSLRLSCAASGRNFARYVMGWYSQAPGKERELVASISNSGGSTYYADSVKGRFTISRDNAKNTVYLQMNSLKPEDTAVYYCARRYYYYTSYRYDYWGQGTQVTVSS | high polyreactivity |
| QVQLVESGGGLVQAGGSLRLSCAASGRNFDDYAMGWYRQAPGKERELVAAISDSGGTTYYADSVKGRFTISRDNAKNTVYLQMNSLKPEDTAVYYCAKRYYGPHYWGQGTQVTVSS | low polyreactivity |
| QVQLVESGGGLVQAGGSLRLSCAASGRNFEKNAMGWSRQAPGKERELVASIDFRGGRTYADSVKGRFTISRDNAKNTVYLQMISLKPEDTAVYYCAKRQVGRKYVRYEYDSWGHGTQVTVSS | low polyreactivity |
| QVQLVESGGGLVQAGGSLRLSCAASGRNFGINAMVWFRPAPGKERELVAAISRSGGRTYYADSVKGRFTISRDNAKNTVYLQMISLKPEDTAVYYCAKVPTYWYYRYYYWGQGTEVTVSS | high polyreactivity |
| QVQLVESGGGLVQAGGSLRLSCAASGRNFGVYTMGWYRQAPGKERELVAAITSGGNTNYADSVKGRFTISRDNAKNNVYLQMNCLKPEDTAVYYCAARYVGNFYYPGHNYWGQVTQVTVSS | low polyreactivity |
| QVQLVESGGGLVQAGGSLRLSCAASGRNFGYYTMGWYRQAPGKERELVARINYIGSSTYYADSVKGRFTISRDNAKNTVFLLMNSLKPEDTAVYYCAAETYYFGYGYWGQGTQVTVSS | high polyreactivity |
| QVQLVESGGGLVQAGGSLRLSCAASGRNFKYNAMGSYRTAPGKERELVAAISSGGSTKYADSVKGRFTISRDNATKTVYLQMNSLKPEDTAVYYCNAVYTPYRRSFYYWGQGTQVTVSS | high polyreactivity |
| QVQLVESGGGLVQAGGSLRLSCAASGRNFRHYAMGWDRQAPGKERELVAAIRWSGGSTYYADSVKGRFTISRDNAKNTVYLQMNSLKPEETAVYYCATRDAVGHRPSGPYQLYDYWGQGTQVTVSS | low polyreactivity |
| QVQLVESGGGLVQAGGSLRLSCAASGRNFRKYAMGWYRQAPGKERELVAAITSSGGSTYYADSVKGRFTISRDNAKNTVYLQMNSLKPVDTAVYYCAAQKRGSPGYRRDYWGQGTQVTVSS | high polyreactivity |
| QVQLVESGGGLVQAGGSLRLSCAASGRNFRYYAMGWYRPAPGKERELVAAISGSGGSTYYADSVKGRFTISRDNAKNTVYLQMNSLKPEDTAVYYCNARYRIPSGEGDHWGQGTQVTVSS | low polyreactivity |
| QVQLVESGGGLVQAGGSLRLSCAASGRNFSYYVMGWYRPAHGKERELVAAITSGGSTNYAHSVKGRFTISRDNAKNTVYLQMNSLKPEDTAVYYCNRAYTYINRLYGYWGQGTQVTVST | high polyreactivity |
| QVQLVESGGGLVQAGGSLRLSCAASGRNFVAYTMGWYRQAPGKERELVAAISTNGGRTYYADSVKGRFTISRDNAKITVYLQMNSLKPEDTAVYYCAAYRGPRADYYWGQGTQVTVSS | high polyreactivity |
| QVQLVESGGGLVQAGGSLRLSCAASGRNFVNYAMGWYRQAPGKERELVAVISRSGGGTNYADSVKGRYTISRDNAKNTVYLQMNSLKPEDTAVYYCAASRKYGYGYWGQGTQVTVSS | high polyreactivity |
| QVQLVESGGGLVQAGGSLRLSCAASGRNFYYYAMGWYRQAPGKERELVATITGSGGNTYYADSVKGRFTISRDNAKNTVYLQMNSLKPEDTAVYFCNARLARGYWTPGKERPMEYWGQGTQVTVSS | low polyreactivity |
| QVQLVESGGGLVQAGGSLRLSCAASGRNIQGYAMGWYRQAPGKESELVAAITLSGGSTYYADSVKGRFTISRDNAKNTVYLQMNSLKPEVTAVYYCNAYYPDEPSLYDYWGQGTQVTVSS | low polyreactivity |
| QVQLVESGGGLVQAGGSLRLSCAASGRNIRRYTMGLYIQAPGKEREFVAAITWSGSSTNYADSVKGRFTISRDNAKNTVYLQMNSLKPEDTAVYYCAAENRRRRDDYWGQGTQVTVSS | high polyreactivity |
| QVQLVESGGGLVQAGGSLRLSCAASGRNISYNAMGGYRQAPGKERELVAAISWGGGSTYYADSVMGRFTISRDNAKNTVFLHMNSLKQDDTAVYYCAKGWYRIKRNDYWGQGTQVTVSS | low polyreactivity |

| Sequence | polyreactivity (PSR sort gate) |
| --- | --- |
| QVQLVESGGGLVQAGGSLRLSCAASGRNYVPYAMGWYRQAPGKERELVAALSNSGGSTYYADSVKGRFTISRDNAKNTGYLQRNSLKPEYTAVYFCAPDGRYAYGYNHWGQGTQVTGSS | low polyreactivity |
| QVQLVESGGGLVQAGGSLRLSCAASGRSFCTYAMGSYRQAPGKERELVAAITSGGSTNYADSVKGRFTISRDNAKNTVYLQMNSLKPEDTAVYYCAAVEYLRESDYWGQCTQVTVSS | low polyreactivity |
| QVQLVESGGGLVQAGGSLRLSCAASGRSFGHYAMGWYRQAPGKERELVAAITTGGNTYYADSVKGRFTISRDNAKNTVYLQMNSLKPEDTAVYYCAKRGYPYKYKYWQVYAAYDYWGQGTQVTVSS | low polyreactivity |
| QVQLVESGGGLVQAGGSLRLSCAASGRSFGKNAMGWYRQAPGKERELVAAISTSGGRTYYADSVKGRFTISRDNAKITFFLQMNSLKPEDTAVYYCNAKGWTRPPGYDYWGQGTQVTVSS | high polyreactivity |
| QVQLVESGGGLVQAGGSLRLSCAASGRSFGVYAMGWYRQAPGKERELVAVISSGGSTTYADSVKGRFTISRDNAKNTVYLQMNSLKPEDTAVYYCAAVSYRRHFGPYNYWGQGTQVTVSS | low polyreactivity |
| QVQLVESGGGLVQAGGSLRLSCAASGRSFKRYDMGGYIQAPGKERELVAAITGTGGSTYYADSVKGRFTISRDNAKNTVYLQMNSLKPEDPADYYCAARLYNTYSGFAFGYWGQGTQVTVSS | high polyreactivity |
| QVQLVESGGGLVQAGGSLRLSCAASGRSFSYAMGWYRQAPGKERELVAAISYGGGGTYYADSVKGRFTISRDNAKNTVYLQMNSLKPEDTAVYYCNARQYRPWYPPYGYDYWGQGTQVTVSS | low polyreactivity |
| QVQLVESGGGLVQAGGSLRLSCAASGRSFYTNVMGWYRQAPGKERELVAAISSAGTTYYADSVKGRFTISRDNAKNTVYLQMNSLKPVDSEVYYCAADQVAYYGFDYWGQGTQVTVST | low polyreactivity |
| QVQLVESGGGLVQAGGSLRLSCAASGRSLRYYAMGWYRQAPGKERELVAVITRDGSTYYADSVKGRFTIPRDNAKNTVYLQMNSLKPEDTAVSYCVYGLTYRSFYYWGQGTQVTVSS | high polyreactivity |
| QVQLVESGGGLVQAGGSLRLSCAASGRSNAMGWYRQAPGKERELVAAISTNGGSTYYADSVKGRFTISRDNAKNTVYLQMNSLKPEDTAVYYCAKRLGRDYTFGYWGQGTQVTVSS | high polyreactivity |
| QVQLVESGGGLVQAGGSLRLSCAASGRSSTRNAMGWYRQAPGKERELVAAITRSGGGTYYADSVKGRFTISRDNAKNTVYLQMNSLKPEDTAVYYCAADQLSPSDGYEYWGQGTQVTVSS | low polyreactivity |
| QVQLVESGGGLVQAGGSLRLSCAASGRTCFPYAMGWYRQAPGKERELVDAISSGGRTNYADSVKGRFTISRDNAKNTVYLQMNSLKPEDTAVYYCAARGYLRLYSYDYWGQGTQVTVSS | high polyreactivity |
| QVQLVESGGGLVQAGGSLRLSCAASGRTCGYYAMGWYRQAPGKEREFVAVITWSGDSTYYADSVKGRFTISRDNAKNTVYLQMNSLKPEDTAVYNGNADSGNAGTAYDDYDYSGQGTQVTVSS | low polyreactivity |
| QVQLVESGGGLVQAGGSLRLSCAASGRTCPRYGLGWYRQAPGKERELVATIRTGGRTNYADSVKGRFTISRDNAKNTVYLQMNSLKPEDTAVYYCATDSSKHPYSPTLLKFDYWGQGTQVTVSS | low polyreactivity |
| QVQLVESGGGLVQAGGSLRLSCAASGRTDVAKGMGRYRQAPGKEKEMVAAINDGDVTYYADSVKGRFTISRDNAKNTVYLQMNSLKPEDTAVYYCAADIIYGYEVYTYTSDYWGQGTQVTVSS | low polyreactivity |
| QVQLVESGGGLVQAGGSLRLSCAASGRTFAAYAMGWYRPAPGKERELVAGITSSSVRTYYADSVKGRFTISRDNAKNTVYLQMNSLKPEDTAVYYRTARADGSSSRWRPYSKFYYWGQGTQVTVSS | low polyreactivity |
| QVQLVESGGGLVQAGGSLRLSCAASGRTFADYAMGWNRQAPGKEREFVAAITYSGGSTYYADSVKGRFTISRDNAKNTVYLQMNSLKPEDTAVYYCNARPGSSYWYDAQWGEYGYWGQGTQVTVSS | high polyreactivity |
| QVQLVESGGGLVQAGGSLRLSCAASGRTFAEYAMGWYRQAPGKERELVAAISKRGGSTYYADSVKGRFTISRDNAKNTVYLQMNSLKPEDTAVYYCNKVNRVPSYGHEVGYWGQGTQVTVSS | high polyreactivity |
| QVQLVESGGGLVQAGGSLRLSCAASGRTFAFNAMGWCRQAPGKDRELVAAISQGADSTYYADSVKGRFTISRDNAKNPVDLQMNSLKPEDTAVYYCAAEAQYNFYSYDYWGQGTQVTVSS | low polyreactivity |
| QVQLVESGGGLVQAGGSLRLSCAASGRTFAFNAMGWYRPAPGKERELVAAIRWSGGCTYYADSVKGRFTISRDSPKNTVSLQMNTLKPEDTAVYYCAAYEKRLGYDYWGQGTQVTVSS | high polyreactivity |
| QVQLVESGGGLVQAGGSLRLSCAASGRTFAFYAMGWYRQAPGKERELVASIRGGGGTNYADSVKGRFTISRDNAKNTVYLQMNSLKTEDTAVYYCAARGYGYRGYYYWGQGTQVTVSS | high polyreactivity |
